Measured values taken from article PMC5815094.

Tests used:
Conditions in all cases: ES buffer: 10 mM Tris pH 8.0, 10 mM KCl, 40 mM NaCl, 1 mM MgCl2; MST + 0.05% Tween-20, room temperature; EMSA + 25 ng tRNA per 10 ul, 37 C 15 min (Fig 6D); NMR …
[1] = biological target: Hfq (Pseudomonas aeruginosa PAO1) (UniProt Q9HUM0); assay: MST
[2] = biological target: Hfq;Crc (Pseudomonas aeruginosa PAO1;Pseudomonas aeruginosa PAO1) (UniProt Q9HUM0+Q51380); assay: MST
[3] = biological target: Hfq (Pseudomonas aeruginosa PAO1) (UniProt Q9HUM0); assay: EMSA

## PrrF2 sRNA
[1]
  Kd: 6.7 nM
[2]
  Kd: 35 nM

## GGACUGGUCGCGAGGCCAGCAGGUAAGCUGAGAGACCAAGCAGUCGGACUCUUCAGAUUAUCUCCUCAUCAGGCUAAUCACGGUUUCGACCCGGCACUUUGCCGGGUCUUUUUUUG [PrrF2 sRNA]
[3]
  binding: binds
